Data: paper doi:10.1101/2025.09.11.675469
Where two headings read alike, the source gives them in different places.

Assays:
LIN28A [1] = biological target: T1, LIN28A (UniProt Q9H9Z2 1-209); test: EMSA
T1 sequence: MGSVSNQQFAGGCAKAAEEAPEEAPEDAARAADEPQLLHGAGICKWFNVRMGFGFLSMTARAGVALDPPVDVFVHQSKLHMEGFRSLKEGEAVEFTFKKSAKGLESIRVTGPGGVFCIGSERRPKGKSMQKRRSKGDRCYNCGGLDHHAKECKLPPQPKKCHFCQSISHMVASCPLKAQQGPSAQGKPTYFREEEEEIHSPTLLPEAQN

LIN28A [2] = biological target: T1, LIN28A; test: EMSA; remark: listed apart in the source

## GGGACAAGUGGUCUGGGACAGGGAGGAGCAAC (structured_RNA) [HOXB9 original]
LIN28A [1]
  binding result: binds

## GGGACAAGUGGUCUGGGACAGGGAGGAGCAAC (structured_RNA, one m6A; position marked only by red colour (not recoverable from text)) [HOXB9 m6A]
LIN28A [2]
  binding result: binds
